From doi:10.1101/2021.07.03.450947, “The pore conformation of lymphocyte perforin” (bioRxiv, 2021)

Biological target: the molecule itself
Assay: cryo-electron tomography; prepores on liposomes (PC, cholesterol, biotinyl PE 6:3:1) held on streptavidin grids; 20 mM HEPES pH 7.5, 150 mM NaCl, 5 mM CaCl2; 5-10 min at 37°C; protein to lipid about 1:10,000

B1: TMH1-lock mutant of perforin (A144C-W373C) (natural protein, mouse, UniProt P10820 21-554, looked up)
chain: PCYTATRSECKQKHKFVPGVWMAGEGMDVTTLRRSGSFPVNTQRFLRPDRTCTLCKNSLMRDATQRLPVAITHWRPHSSHCQRNVAAAKVHSTEGVAREAAANINNDWRVGLDVNPRPEANMRCSVAGSHSKVANFAAEKTYQDQYNFNSDTVECRMYSFRLVQKPPLHLDFKKALRALPRNFNSSTEHAYHRLISSYGTHFITAVDLGGRISVLTALRTCQLTLNGLTADEVGDCLNVEAQVSIGAQASVSSEYKACEEKKKQHKMATSFHQTYRERHVEVLGGPLDSTHDLLFGNQATPEQFSTWTASLPSNPGLVDYSLEPLHTLLEEQNPKREALRQAISHYIMSRARCQNCSRPCRSGQHKSSHDSCQCECQDSKVTNQDCCPRQRGLAHLVVSNFRAEHLWGDYTTATDAYLKVFFGGQEFRTGVVWNNNNPRWTDKMDFENVLLSTGGPLRVQVWDADYGWDDDLLGSCDRSPHSGFHEVTCELNHGRVKFSYHAKCLPHLTGGTCLEYAPQGLLGDPPGNRSGAVW
modifications: engineered disulphide bond between A144C and W373C
notes: perforin, mouse, with the engineered disulphide A144C-W373C that tethers TMH1 to the core of the MACPF domain; also called A144C-W373C perforin; source: baculovirus/insect cell system, purified from the supernatant
binding result: binds
